Laboratory results taken from article PMC9879097, “Borrelia burgdorferi DnaA and the Nucleoid-Associated Protein EbfC Coordinate Expression of the dnaX-ebfC Operon”.

T1: EbfC (Borrelia burgdorferi, UniProt O51418 1-99)
T1 sequence: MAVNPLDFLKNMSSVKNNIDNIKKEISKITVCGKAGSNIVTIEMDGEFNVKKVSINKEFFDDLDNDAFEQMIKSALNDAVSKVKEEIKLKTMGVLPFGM

T2: GST-DnaA (Borrelia burgdorferi, UniProt P33768 1-486)
T2 sequence: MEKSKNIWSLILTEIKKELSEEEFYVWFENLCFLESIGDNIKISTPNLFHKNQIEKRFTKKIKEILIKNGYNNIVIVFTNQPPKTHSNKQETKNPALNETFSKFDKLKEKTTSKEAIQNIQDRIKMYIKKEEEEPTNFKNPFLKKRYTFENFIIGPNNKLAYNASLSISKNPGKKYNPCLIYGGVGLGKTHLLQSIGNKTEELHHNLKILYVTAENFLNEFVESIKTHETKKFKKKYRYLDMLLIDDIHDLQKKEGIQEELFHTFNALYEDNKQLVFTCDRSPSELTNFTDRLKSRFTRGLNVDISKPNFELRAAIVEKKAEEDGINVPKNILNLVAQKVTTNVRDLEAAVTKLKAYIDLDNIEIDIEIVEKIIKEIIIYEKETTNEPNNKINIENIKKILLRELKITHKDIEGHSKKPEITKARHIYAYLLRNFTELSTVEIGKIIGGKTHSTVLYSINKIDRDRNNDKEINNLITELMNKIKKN

B1: probe 2, consensus EbfC motif (dsDNA)
DNA 1: GGATTTGTCTTTTTGTAACTTTCAATTTTA
DNA 2: TAAAATTGAAAGTTACAAAAAGACAAATCC
B2: Competitor 5 (C5) (dsDNA)
DNA 1: AAATGCAATGTTTTGCTTTATGTTAAGATATGGATTTGTCTTTTT
DNA 2: AAAAAGACAAATCCATATCTTAACATAAAGCAAAACATTGCATTT
B3: Competitor 6 (C6) (dsDNA)
DNA 1: TTTCAATTTTATTATATTTTTTATGTTTCATAAAATTCTTTTAAA
DNA 2: TTTAAAAGAATTTTATGAAACATAAAAAATATAATAAAATTGAAA
B4: Competitor 2 (C2) (dsDNA)
DNA 1: GGATTTGTCTTTTTGTAACTTTCAATTTTATTATATTTTTTATGT
DNA 2: ACATAAAAAATATAATAAAATTGAAAGTTACAAAAAGACAAATCC
B5: Competitor 3 (C3) (dsDNA)
DNA 1: TTCATAAAATTCTTTTAAAGTAATAGCTCTGAGATATAAATATGT
DNA 2: ACATATTTATATCTCAGAGCTATTACTTTAAAAGAATTTTATGAA

Tests used:
EbfC [1] = molecular target: T1, EbfC; experiment: EMSA; poly(dI-dC) 2.5 ng/uL; 3.75-30 uM EbfC; 50 mM Tris-HCl (pH not stated), 50 mM KCl, 1 mM EDTA, 1 mM PMSF, 1 mM DTT, 0.01% Tween 20, 10% glycerol; room temperature 15 min; GST-DnaA reactions with 1 mM MgCl2 and 1 mM ATP or ADP; 100 nM DNA or 20 nM RNA probe; settings: protein: recombinant; tags: N-terminal 6xHis (pET200); chain copies: 2; label: 5' IRDye800 on strand 1; blunt
GST-DnaA = molecular target: T2, GST-DnaA; experiment: competition; ATP, Mg2+; 10x excess vs N1; 50 mM Tris-HCl (pH not stated), 50 mM KCl, 1 mM EDTA, 1 mM PMSF, 1 mM DTT, 0.01% Tween 20, 10% glycerol; room temperature 15 min; GST-DnaA reactions with 1 mM MgCl2 and 1 mM ATP or ADP; 100 nM DNA or 20 nM RNA probe; settings: protein: recombinant; tags: N-terminal GST; blunt
EbfC [2] = molecular target: T1, EbfC; experiment: competition; 50x excess vs N13; only smaller complex eliminated; 50 mM Tris-HCl (pH not stated), 50 mM KCl, 1 mM EDTA, 1 mM PMSF, 1 mM DTT, 0.01% Tween 20, 10% glycerol; room temperature 15 min; GST-DnaA reactions with 1 mM MgCl2 and 1 mM ATP or ADP; 100 nM DNA or 20 nM RNA probe; settings: protein: recombinant; tags: N-terminal 6xHis (pET200); chain copies: 2
EbfC [3] = molecular target: T1, EbfC; experiment: EMSA; 5-15 uM EbfC; two complexes; 50 mM Tris-HCl (pH not stated), 50 mM KCl, 1 mM EDTA, 1 mM PMSF, 1 mM DTT, 0.01% Tween 20, 10% glycerol; room temperature 15 min; GST-DnaA reactions with 1 mM MgCl2 and 1 mM ATP or ADP; 100 nM DNA or 20 nM RNA probe; settings: protein: recombinant; tags: N-terminal 6xHis (pET200); chain copies: 2; label: 5' Alexa Fluor 647 (probe)
EbfC [4] = molecular target: T1, EbfC; experiment: competition; 50x excess vs N13; 50 mM Tris-HCl (pH not stated), 50 mM KCl, 1 mM EDTA, 1 mM PMSF, 1 mM DTT, 0.01% Tween 20, 10% glycerol; room temperature 15 min; GST-DnaA reactions with 1 mM MgCl2 and 1 mM ATP or ADP; 100 nM DNA or 20 nM RNA probe; settings: protein: recombinant; tags: N-terminal 6xHis (pET200); chain copies: 2

Row | Binder | binding result (GST-DnaA) | further results
1 | B1 |  | binding result (EbfC [1]): binds
2 | B2 | no binding | 
3 | GGAUUUGUCUUUUUGUAACUUUCAAUUUUA (ssRNA) [unlabeled dnaX-ebfC RNA competitor] |  | binding result (EbfC [2]): binds
4 | B3 | no binding | 
5 | GGAUUUGUCUUUUUGUAACUUUCAAUUUUA (ssRNA) [EbfC RNA, dnaX-ebfC 5' UTR 30-mer] |  | binding result (EbfC [3]): binds
6 | B4 | binds | 
7 | AGGCAAAAGGAUUUGCCAAAGUCAGAAAUU (ssRNA) [flaB RNA competitor] |  | binding result (EbfC [4]): no binding
8 | B5 | binds | 
